Here are results for 20 sequences from a protein production outcome set (Wang et al. 2014).

The data set in a line: label from the status in PepcDB records.
As to “MSRAANKLTNTAIKNATTEGKAQRKLADGGGLTLVVKPESKVWWLRYRYDGKERTLTLGAYPQTSLKEARAKRDEAKQLLAEGIDPVTHRATHKTKRVEATANTFKAVATEWLKEVHQKAVVEEHYNRNVRRLEQHAFPKLGRRPISEIEPSDILEPLRDIAKTGRRETAKRVKTLIGQVFRYTVSTGRAQRDMTADIRGILPASETKHHAAVVKPDEIADLLKRIDTYWGTPTVCMALELSPLLFLRPGELRTMKWEQIDWDDATWTTERTKNGEPLVVPLARQSIELLSQIQEVNGKWEWVFPGGHSKTKPMSNNAIRTALTRLELHGIMSAHGFRAMARTVLTERLGFRA”, the protein production result was “failed”.
As for “MSRADDVANLFQRFGASSDGYLETDNSLDYQESSVSSTPSVALQRATSQPSIEQPCAEQSAQNNAPAPDSITPDKTRRIAADTLAKLLAEAVQAREAEAQARNNEALAQSMGKEQLSRTPAHVIAVVSAKGGVGKSTLSAALTSLVKVPGGQTLAIDLDPQDALQHHLNASPDVAGLGGASLSGENWRALLLNGSADADTQLLAYGSLQLDERRSLERFQESDAHWLVRQIARMQLSARDVVILDVPCGDLLMLEQALNAASQVLVVLTADAACYLTLDQMQGWLEPVLAGPQPPVCHYVINQFDASRTFSRDMRDVMAKRLGGRLLGIVHKDNALAEALAYGHNAVQVPSASPGTQDLRVLSHLLITKLLTQDVEETRLS”, the protein production result was “failed”.
In the case of “MSRARSLFPEMSDFFAGLPSWASIRPVFGDHIIRIEDEMKDGGYELRAEVPGIDPAKDIDITVRDGVLTIKAERTEKKETNGRSEFAYGSFMRSVTLPPGADEDAIKAGYDKGILTISVPVTEPEAAAEKRVAVETVSPLEHHHHHH” it was “failed”; in that of “MSRDRLYTWAGLWRSPSSSWEALRLEDDQAESQLRAPDERSGLPYQLDYRLRWDADWHLREAVFHVESETGVRKLHLLADGRGHWQDGDGEALPAFDGCLDIDIWPSPFTNTFPIRRLGLADGQRAEIRALYIEAPALEPRSMRQAYTRLDASHYLYENLEGSAFKAVLLVDEQGLVIDYPGLFQRL”, “not failed”.
On to “MSREKIEANREKILNGPIVPTLLVLAYPIIINQLVHVLYNLTDTFWLGKLGRIELSAPGTAWPLVWFLMSIGSGFVVAGFAFVSQYIGAGDYEKANRYAGALYSLLLIFATGMSIFGIVLAPYFLRFMKVSETIFPYALTYTRIIFAGIPFSFTLFAFNFLLRAIGDTKTPVKINIGTIILNIILDPFFIFGWGPFPRLGVAGAAIATMLSNSVGSLIGGYLLFTGKVGIHLTLENLKPDLKFYSRIFRVGLPSSIGDSTSALGFVVLTRVIFTVGRIYGEAHGIKGYEDVAFPTYSITNRLTNFMFAFSDGISMAMGTMVGQNIGARKYERAKEIAEKAMLINFTILSIGTLLFAIFRVPIFKFFVNDPMVIAESKKVVMYFSASLPFFGIFSAVNQVFNSAGHTKKSMVLGIIRLWILRIPLSYWLGVAMKDTAGMWLGMGLSNVIGALIGLAWFLKGSWLRGVIEEHH”, for which the protein production entry is on record as “failed”.
For the sequence “MSRFRSLLQASVNATKKALTWNVEEWVPPAEKHIFKFHSKEDLKKWHLYSDSEYGGLSSASLEIPDKGDGSDCTGVFSGNLSVDLSEGSKWNISRSGFCGMRSKKFDGFIDLDGYDAIALRIRGDGRCYISTIYTENWVNSPGQSEDNSWQAFVFAPKDSWYTAKIPLARYLPTWRGNVIDVEMEMNPGRVLGMSLSVNAEGGAVGAKSGAGDFRVEIDWIKALRLP”, the protein production entry is recorded as “failed”.
Regarding “MSRKPRYSLALEVEPANPNEAYRHYMKKLSYETDIADLSIDIKKGYEGIIVVDVRDAEAYKECHIPTAISIPGNKINEDTTKRLSKEKVIITYCWGPACNGATKAAAKFAQLGFRVKELIGGIEYWRKENGEVEGTLGAKADLFWNMKKESKNKKSLDGSTQ”, the protein production entry is reported as “failed”.
Then “MSRKYFVGGNFKCNGTKESLKTLIDSFKQVESSNSEVYVFPTSLHISLVKEFFGNDHPGVFKIGSQNISCTGNGAFTGEVSCEMLKDMDVDCSLVGHSERRQYYSETDQIVNNKVKKGLENGLKIVLCIGESLSERETGKTNDVIQKQLTEALKDVSDLSNLVIAYEPIWAIGTGVVATPGQAQEAHAFIREYVTRMYNPQVSSNLRIIYGGSVTPDNCNELIKCADIDGFLVGGASLKPTFAKIIESAQ”, with “not failed”.
For “MSRLSAAAIELFEDLIRQQVEDKAIPSISYGLVDRDGLMGAGHIQRHDRGFVMGDDTCFRIGSITKTFTAVAVMQLAEKGLVDLDVDVSEYLPGFKPQNPFAGREGGPHGAQISLRKLMSHTAGLVREPKSGHYLDAARPPLADTVAELATSTLKQDPSLGQMHYSNAGIAVAGRVIETLTRKSYAEYVSENILKPLGMDQTSSGLAPGIAERLAPADMWTLEGDSPAPVFDLGGPPAGNIYSTTSDMARYVQCLLRGGFAPDGWQIVSPGSLREMWVPIGKRASGERVANTYGLCFGVGDVDGWTSVGHGGAVYGYSSQMILLPAAGVGVLIFSTLDFSNQIGARLGVEGLRIALAERRMGTLPVRPQGLPPVAADQLVALPGHYRHDTSGEVVEVKAKAGKLFLMGEGVPLQIRPVAGSDFTIDGRIYGHGAEYPHMNLSFPAPGALVWKGVNWSRIDALPAEAVPAEIAPHLGEYGPDFNITYLSYSHGELKCLIEYFCTHGCEPVEAGRFRMRGLLYEEEILEIDAIDDHGRRGIRVGPMFLERRHAPAA”, the protein production result is listed as “failed”.
In the case of “MSRQQNEEDTNSVLFDARNEYYIGNFMGSINFVLPEQGTAGPELLSYMYLSYLAIDSGRIVASDIKEGNSTPLQALRLVHEAFEQPSRTEELLEKLTDKVAGEEDETNIWHLATAIVYCHDGQFENALKILHGSTNLESMALSVQCLLRLQRVDLAKQLVAKMQEISDDATLTQLAQAWVALAQGTEQMQDAFHIYQEFCEKFKPTPALLNGQAVVHLGLERYEEADSVLRESLLKKHNDYDTLINLMVHAHLTGKPTEAITRNLEQLRQFYPKSDFVTDLDKKSAEFDRLCLQYDVEGGEKLLAV”, the protein production entry is reported as “failed”.
Then “MSRRDQLFSAMTASYVIAVTLAIVIAAIFAPVIWNGVPSGGDDDPSVAVITLRGGTTDANVNAVKQDLREARTNESIEAVVLRVDSPGGPVDSSEEFYLAVNRTASEMPVVAYVEGTAASGGYYGITPADEIVVKPSSNVGSIGVIVQAPLSLIEQVEQQGETFVRSGPDKAQISKDSLREDIEVLQRSFVGTVMRHRGEQLTVSREEVANGGTYLGAQATENGFADRIGDTGLAIERAAALSDDIEGDQYDVVYQGSGGAEFNVIIVPAGAETVQGANNVTYLVHPDNSETTFREPVKYYAVWGIPAEDNNATVIRND”, with “failed”; and “MSRRKKAYQGRKIGSQLLATLESEARKKVGYLQVKTVAEGSNKDYDRTNDFYRGLGFKKLEIFPQLWNPQNPCQILIKKLE”, with “failed”; and “MSRRTTLRRVGLLVLGVNLLLVLLKAGVWLTTGSFAVQSEAVNSAADTAYSLVIVAGLYLTTRPPDFEHPHGHERIEPFVSLFVAAGIFAAGGFVLWNAGTALLTGNISVTQGPAAVLVLAFSAVAKYALYRYCLRAGTDRNSPALIATAKDNRNDILTAGAALVGVGGAMAGYPIADPLAALVVAIGIIYTGIEVVQENVTYLVGGAPPEDLRREILRRALDHPKVSGAHDVIAHYVGPEIDVSLHIEVEGDLTLFEAHDIETAVIKSIEELPEVDDAFIHVDPKELGEWKDDEEVERLADLE”, with “failed”.
As to “MSRSLVFGTAGLALLLAAGGLLYSFGPDERRARAAPTPPDTTDTSGVYSQRAPSRNGIGKVYMGREISKVMGHRGANWLERPARAEKERPDLLVDSLPLGPSDTVADIGAGTGYLSFRVAPRVPQGNILAVDIQPEMLNMMRERIDERGVDNVTPIRGTVTDPQLPADSVDLAYMVDAYHEFSHPYEMMTALMEDLTPGGRVVLVEYPREDPSIPIKTLHKMTEAQAKKEMRAVGLEWVETKDMLPRQHFMVFRKPVE”, the protein production entry is recorded as “failed”.
On to “MSRSRHCPAVLIAAPASGQGKTTVTAALARLHRNLGRKVRVFKCGPDFLDPMILERASGAPVYQLDLWMIGAEESRRLLWEAAGEADLILIEGVMGLFDGTPSSADLARHFGVPVLAVIDGTAMAQTFGALALGLARYQADLPFAGVLANRVGSLRHAQLLEGSLTEGLRWYGGLSRERGIELPSRHLGLVQASELNDLDTRLDAAAEALGASCDAALPPPVSFAEPEPQACVASLAGVRIGVARDEAFAFIYGANLDLLRNLGAQLVFFSPLHDHELPAVDSLYLPGGYPELHHHALAANAPMCEAIRAHHAQGKPLLAECGGMLYLLDALTDVAGERAELLGLLPGEATMQKRLAALALQAVELPEGTLRGHTYHHSLTSTALEPIARGLSPNGGRGNEAVYRLGRLTASYVHFYFPSCPDAAAALLRP”, for which the protein production result is “failed”.
Then “MSRSTLQPARISRVLPDSIAAEIGFEPGDAIISINGQQPRDLIDYQFLCSDEFLELEVLDAAGRSHQIEIEKDTDEGLGLEFETALFDGLIQCNNRCPFCFIDQQPPGKRESLYYKDDDYRLSFLYGSYLTLTNLSEAEWRRIAQLRLSPLYVSVHATEPDLRRRLLKNERAGLIGEQLHWFRQQQLQIHAQVVVCPDLNDGAQLQRTLMDLAEFHRGDPATVASVAVVPVGLTRFRPTEDELRPVQPADAAATIALVEALQTQFQTELGSRFAWLADEWYLIAGQPLPSASWYEQYPQLENGVGSIRAFISEFERQAATLPSQIEPARRLTWVVGNVVGQAFQPLQARLNAVQGLKVDLVGLASRYWGQTLTVTGLLTGQDLIEVLSDRDLGDGLLLPSLILLHGYRCFLDDLTVAEVEKALHTPIFVAEGITGLLTECLRSPLAATVQDH”, with “failed”; and “MSRSTRSDQNARIRQRLGQPESGWRQRWYTIIFEADTRPGRTFDIVLLVAIIASVAVVMLDSIQAIHARLGTVFTALEWLFTLLFTTEYIMRLSVVRRPLRYVFSFYGIIDFLSIIPTWASFFVPELAFLIDVRLLRLLRVFRILKLTVYFEEAEILMLALSNSRRKIFVFLGTVFIITVILGTIMYVVEGPTHGFTSIPVSMYWAIVTLTTTGFGDMVPKTPIGQFITSITILLGYGIIAFPTGIVGAELAASIIRRPLTTRSCEHCLTEGHEPDATFCKHCGTALPEYRTELATDRRGDDGSRSR”, with “failed”.
Then “MSRTILQPGQIEAAANIPPHLHQPSRDLFARRGERLLQLAEGHPMGDYLRLVAGLCRLQQALLDNPPALAPLDPERLRKSREHGMPPLAYDLLVREGAWLPWLDALLAGYPAPANAAVGAALEQLREAEEGQRKAWAIALLSGQFDLLPAALVPFLGAALQVAWSHWLLGLEEGAVVETESRTLCPACGSPPMAGMIRQGGKETGLRYLSCSLCACEWHYVRIKCSHCEESKHLAYLSLEHDGQPAEKAVLRAETCPSCQGYLKQFYLEFDRHADALADDLASLALDMRLAEDGYLRRSPNLLLAPGGE”, with “not failed”.
In the case of “MSRVAPRDSAAQAASAVAESVRYQGRKASRQGSEQRRQAILDAAMRLIVRDGVRAVRHRAVAAEAQVPLSATTYYFKDIDDLITDTFALFVERNAEALSAFWSSVEGDLQEMAAVLADDPGARGSLVERIVELAVQYVQVQLTERREHLLAEQAFRQEALLNPRLRELADAHQRILSLGAVHFFQVLGSGQPEQDAKVLTSIILQMEYQGLVDGVEQLAVDEMRAILRRYLNLVMGL” it was “not failed”; in that of “MSRVKNVVELLETKGVDALYLTKKTNVNYISGFPDEEAYAVICKDGNFLVTDSRYMELAEKVCKDFEIINWHNFDRSVAKAVKSVCDKVGIKKLGFERTNIVFDKYEELKNLIEKDNGELIPTENIVETLRYVKDKDEIKNTRKACEIADKALEELIPHIKAGVSEIELATKLEYFMKMNGAQNIGFETILISGAKTSLLHGKPSDKIIEKGDFVLIDYGAMYNGYISDTTRTFIVGGASEKQLEIYNLVKEAQNVGVENMKAGVHATIPDAEIRKVVKKYEDYYYQGIGHGVGRDVHEEPFIGNYGDKIIEEGCIITMEPGIYFPGWGGVRIEDTVLITKNGPERLTKFPKDLMILDK”, “failed”.
